US20090136481A1

Target: recombinant myostatin
Experiment: cell-based or functional assay

“350 protein (dominant negative peptide of myostatin C-terminally truncated at amino acid 350; amino acids 267-350 of bovine myostatin) (from UniProt O18836 267-350)” showed a macrophage migration in chemotaxis assay (ZAMS medium with 5 µg/ml myostatin, with or without 350 protein) of 20 fold.
